# In patent US12679878B2, “CRF2 receptor agonists and their use in therapy” (SANOFI, priority 2020, dated 2026):
# Starred links: 1 amine or outer side, 2 acyl side, 3 side chain; linkers in the order of their positions; H or OH if unused. Non-standard residues stand in square brackets, D forms with d. Groups on a side chain read outwards from the residue. No end group written: not given here. *: point of attachment. C18 diacid = O=C(O)CCCCCCCCCCCCCCCCC(=O)*; γGlu = O=C(O)[C@H](CCC(=O)[*:2])N[*:1]; AEEA = NCCOCCOCC(=O)O; Aib = CC(C)(N)C(=O)O
# Molecular target: human corticotropin-releasing factor 2α (CRF2 α receptor) (human), Q13324
# Sequence (Q13324 20-411): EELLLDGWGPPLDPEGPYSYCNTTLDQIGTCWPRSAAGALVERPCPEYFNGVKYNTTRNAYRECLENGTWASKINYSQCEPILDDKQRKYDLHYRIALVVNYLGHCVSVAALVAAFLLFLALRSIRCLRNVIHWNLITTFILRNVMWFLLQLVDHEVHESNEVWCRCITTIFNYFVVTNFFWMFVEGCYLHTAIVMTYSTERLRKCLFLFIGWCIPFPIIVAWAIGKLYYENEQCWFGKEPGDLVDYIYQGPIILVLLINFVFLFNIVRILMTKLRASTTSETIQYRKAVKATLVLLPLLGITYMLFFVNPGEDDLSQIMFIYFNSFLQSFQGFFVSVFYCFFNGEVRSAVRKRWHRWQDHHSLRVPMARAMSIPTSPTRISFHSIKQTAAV
# Experiment: cell-based or functional assay
"EC50 [nM], 0% HSA","EC50 [nM], 0.1% HSA",Binder
1.01 nM,55.1 nM,FTLSLDVPTKIK([AEEA-AEEA-γGlu-C18 diacid])QILLKQQKQKKERQQAETNKQLLERV-NH2 (N-terminus assumed; SMILES CC[C@H](C)[C@H](NC(=O)[C@H](CCC(N)=O)NC(=O)[C@H](CCCCNC(=O)COCCOCCNC(=O)COCCOCCNC(=O)CC[C@H](NC(=O)CCCCCCCCCCCCCCCCC(=O)O)C(=O)O)NC(=O)[C@@H](NC(=O)[C@H](CCCCN)NC(=O)[C@@H](NC(=O)[C@@H]1CCCN1C(=O)[C@@H](NC(=O)[C@H](CC(=O)O)NC(=O)[C@H](CC(C)C)NC(=O)[C@H](CO)NC(=O)[C@H](CC(C)C)NC(=O)[C@@H](NC(=O)[C@@H](N)Cc1ccccc1)[C@@H](C)O)C(C)C)[C@@H](C)O)[C@@H](C)CC)C(=O)N[C@@H](CC(C)C)C(=O)N[C@@H](CC(C)C)C(=O)N[C@@H](CCCCN)C(=O)N[C@@H](CCC(N)=O)C(=O)N[C@@H](CCC(N)=O)C(=O)N[C@@H](CCCCN)C(=O)N[C@@H](CCC(N)=O)C(=O)N[C@@H](CCCCN)C(=O)N[C@@H](CCCCN)C(=O)N[C@@H](CCC(=O)O)C(=O)N[C@@H](CCCNC(=N)N)C(=O)N[C@@H](CCC(N)=O)C(=O)N[C@@H](CCC(N)=O)C(=O)N[C@@H](C)C(=O)N[C@@H](CCC(=O)O)C(=O)N[C@H](C(=O)N[C@@H](CC(N)=O)C(=O)N[C@@H](CCCCN)C(=O)N[C@@H](CCC(N)=O)C(=O)N[C@@H](CC(C)C)C(=O)N[C@@H](CC(C)C)C(=O)N[C@@H](CCC(=O)O)C(=O)N[C@@H](CCCNC(=N)N)C(=O)N[C@H](C(N)=O)C(C)C)[C@@H](C)O) [SEQ ID NO: 53]
0.7 nM,45.8 nM,FTLSLDVPTKIK([AEEA-AEEA-γGlu-C18 diacid])QILLKQQKQKKERQQAEKNKQLLERV-NH2 (N-terminus assumed; SMILES CC[C@H](C)[C@H](NC(=O)[C@H](CCC(N)=O)NC(=O)[C@H](CCCCNC(=O)COCCOCCNC(=O)COCCOCCNC(=O)CC[C@H](NC(=O)CCCCCCCCCCCCCCCCC(=O)O)C(=O)O)NC(=O)[C@@H](NC(=O)[C@H](CCCCN)NC(=O)[C@@H](NC(=O)[C@@H]1CCCN1C(=O)[C@@H](NC(=O)[C@H](CC(=O)O)NC(=O)[C@H](CC(C)C)NC(=O)[C@H](CO)NC(=O)[C@H](CC(C)C)NC(=O)[C@@H](NC(=O)[C@@H](N)Cc1ccccc1)[C@@H](C)O)C(C)C)[C@@H](C)O)[C@@H](C)CC)C(=O)N[C@@H](CC(C)C)C(=O)N[C@@H](CC(C)C)C(=O)N[C@@H](CCCCN)C(=O)N[C@@H](CCC(N)=O)C(=O)N[C@@H](CCC(N)=O)C(=O)N[C@@H](CCCCN)C(=O)N[C@@H](CCC(N)=O)C(=O)N[C@@H](CCCCN)C(=O)N[C@@H](CCCCN)C(=O)N[C@@H](CCC(=O)O)C(=O)N[C@@H](CCCNC(=N)N)C(=O)N[C@@H](CCC(N)=O)C(=O)N[C@@H](CCC(N)=O)C(=O)N[C@@H](C)C(=O)N[C@@H](CCC(=O)O)C(=O)N[C@@H](CCCCN)C(=O)N[C@@H](CC(N)=O)C(=O)N[C@@H](CCCCN)C(=O)N[C@@H](CCC(N)=O)C(=O)N[C@@H](CC(C)C)C(=O)N[C@@H](CC(C)C)C(=O)N[C@@H](CCC(=O)O)C(=O)N[C@@H](CCCNC(=N)N)C(=O)N[C@H](C(N)=O)C(C)C) [SEQ ID NO: 52]

# Further lines, the binder ahead of its results:
Binder,"EC50 [nM], 0% HSA","EC50 [nM], 0.1% HSA"
IVLSLDVPTKLK([AEEA-AEEA-γGlu-C18 diacid])QILLKQERQR[Aib]ERQQAETNVRILERV-NH2 (N-terminus assumed; SMILES CC[C@H](C)[C@H](N)C(=O)N[C@H](C(=O)N[C@@H](CC(C)C)C(=O)N[C@@H](CO)C(=O)N[C@@H](CC(C)C)C(=O)N[C@@H](CC(=O)O)C(=O)N[C@H](C(=O)N1CCC[C@H]1C(=O)N[C@H](C(=O)N[C@@H](CCCCN)C(=O)N[C@@H](CC(C)C)C(=O)N[C@@H](CCCCNC(=O)COCCOCCNC(=O)COCCOCCNC(=O)CC[C@H](NC(=O)CCCCCCCCCCCCCCCCC(=O)O)C(=O)O)C(=O)N[C@@H](CCC(N)=O)C(=O)N[C@H](C(=O)N[C@@H](CC(C)C)C(=O)N[C@@H](CC(C)C)C(=O)N[C@@H](CCCCN)C(=O)N[C@@H](CCC(N)=O)C(=O)N[C@@H](CCC(=O)O)C(=O)N[C@@H](CCCNC(=N)N)C(=O)N[C@@H](CCC(N)=O)C(=O)N[C@@H](CCCNC(=N)N)C(=O)NC(C)(C)C(=O)N[C@@H](CCC(=O)O)C(=O)N[C@@H](CCCNC(=N)N)C(=O)N[C@@H](CCC(N)=O)C(=O)N[C@@H](CCC(N)=O)C(=O)N[C@@H](C)C(=O)N[C@@H](CCC(=O)O)C(=O)N[C@H](C(=O)N[C@@H](CC(N)=O)C(=O)N[C@H](C(=O)N[C@@H](CCCNC(=N)N)C(=O)N[C@H](C(=O)N[C@@H](CC(C)C)C(=O)N[C@@H](CCC(=O)O)C(=O)N[C@@H](CCCNC(=N)N)C(=O)N[C@H](C(N)=O)C(C)C)[C@@H](C)CC)C(C)C)[C@@H](C)O)[C@@H](C)CC)[C@@H](C)O)C(C)C)C(C)C) [SEQ ID NO: 50],17.2 nM,
FTLSLDVPTKIK([AEEA-AEEA-γGlu-C18 diacid])QILLKQQKQKKERQQAEKNKQLLEQI-NH2 (N-terminus assumed; SMILES CC[C@H](C)[C@H](NC(=O)[C@H](CCC(N)=O)NC(=O)[C@H](CCC(=O)O)NC(=O)[C@H](CC(C)C)NC(=O)[C@H](CC(C)C)NC(=O)[C@H](CCC(N)=O)NC(=O)[C@H](CCCCN)NC(=O)[C@H](CC(N)=O)NC(=O)[C@H](CCCCN)NC(=O)[C@H](CCC(=O)O)NC(=O)[C@H](C)NC(=O)[C@H](CCC(N)=O)NC(=O)[C@H](CCC(N)=O)NC(=O)[C@H](CCCNC(=N)N)NC(=O)[C@H](CCC(=O)O)NC(=O)[C@H](CCCCN)NC(=O)[C@H](CCCCN)NC(=O)[C@H](CCC(N)=O)NC(=O)[C@H](CCCCN)NC(=O)[C@H](CCC(N)=O)NC(=O)[C@H](CCC(N)=O)NC(=O)[C@H](CCCCN)NC(=O)[C@H](CC(C)C)NC(=O)[C@H](CC(C)C)NC(=O)[C@@H](NC(=O)[C@H](CCC(N)=O)NC(=O)[C@H](CCCCNC(=O)COCCOCCNC(=O)COCCOCCNC(=O)CC[C@H](NC(=O)CCCCCCCCCCCCCCCCC(=O)O)C(=O)O)NC(=O)[C@@H](NC(=O)[C@H](CCCCN)NC(=O)[C@@H](NC(=O)[C@@H]1CCCN1C(=O)[C@@H](NC(=O)[C@H](CC(=O)O)NC(=O)[C@H](CC(C)C)NC(=O)[C@H](CO)NC(=O)[C@H](CC(C)C)NC(=O)[C@@H](NC(=O)[C@@H](N)Cc1ccccc1)[C@@H](C)O)C(C)C)[C@@H](C)O)[C@@H](C)CC)[C@@H](C)CC)C(N)=O) [SEQ ID NO: 51],0.32 nM,21.4 nM
IVLSLDVPIKLK([AEEA-AEEA-γGlu-C18 diacid])QILLEQERQR[Aib]ERQQAETNVQILAQV-NH2 (N-terminus assumed; SMILES CC[C@H](C)[C@H](N)C(=O)N[C@H](C(=O)N[C@@H](CC(C)C)C(=O)N[C@@H](CO)C(=O)N[C@@H](CC(C)C)C(=O)N[C@@H](CC(=O)O)C(=O)N[C@H](C(=O)N1CCC[C@H]1C(=O)N[C@H](C(=O)N[C@@H](CCCCN)C(=O)N[C@@H](CC(C)C)C(=O)N[C@@H](CCCCNC(=O)COCCOCCNC(=O)COCCOCCNC(=O)CC[C@H](NC(=O)CCCCCCCCCCCCCCCCC(=O)O)C(=O)O)C(=O)N[C@@H](CCC(N)=O)C(=O)N[C@H](C(=O)N[C@@H](CC(C)C)C(=O)N[C@@H](CC(C)C)C(=O)N[C@@H](CCC(=O)O)C(=O)N[C@@H](CCC(N)=O)C(=O)N[C@@H](CCC(=O)O)C(=O)N[C@@H](CCCNC(=N)N)C(=O)N[C@@H](CCC(N)=O)C(=O)N[C@@H](CCCNC(=N)N)C(=O)NC(C)(C)C(=O)N[C@@H](CCC(=O)O)C(=O)N[C@@H](CCCNC(=N)N)C(=O)N[C@@H](CCC(N)=O)C(=O)N[C@@H](CCC(N)=O)C(=O)N[C@@H](C)C(=O)N[C@@H](CCC(=O)O)C(=O)N[C@H](C(=O)N[C@@H](CC(N)=O)C(=O)N[C@H](C(=O)N[C@@H](CCC(N)=O)C(=O)N[C@H](C(=O)N[C@@H](CC(C)C)C(=O)N[C@@H](C)C(=O)N[C@@H](CCC(N)=O)C(=O)N[C@H](C(N)=O)C(C)C)[C@@H](C)CC)C(C)C)[C@@H](C)O)[C@@H](C)CC)[C@@H](C)CC)C(C)C)C(C)C) [SEQ ID NO: 48],2.2 nM,
IVLSLDVPIKLK([AEEA-AEEA-γGlu-C18 diacid])QILLEQERQR[Aib]ERQQAETNVRILERV-NH2 (N-terminus assumed; SMILES CC[C@H](C)[C@H](N)C(=O)N[C@H](C(=O)N[C@@H](CC(C)C)C(=O)N[C@@H](CO)C(=O)N[C@@H](CC(C)C)C(=O)N[C@@H](CC(=O)O)C(=O)N[C@H](C(=O)N1CCC[C@H]1C(=O)N[C@H](C(=O)N[C@@H](CCCCN)C(=O)N[C@@H](CC(C)C)C(=O)N[C@@H](CCCCNC(=O)COCCOCCNC(=O)COCCOCCNC(=O)CC[C@H](NC(=O)CCCCCCCCCCCCCCCCC(=O)O)C(=O)O)C(=O)N[C@@H](CCC(N)=O)C(=O)N[C@H](C(=O)N[C@@H](CC(C)C)C(=O)N[C@@H](CC(C)C)C(=O)N[C@@H](CCC(=O)O)C(=O)N[C@@H](CCC(N)=O)C(=O)N[C@@H](CCC(=O)O)C(=O)N[C@@H](CCCNC(=N)N)C(=O)N[C@@H](CCC(N)=O)C(=O)N[C@@H](CCCNC(=N)N)C(=O)NC(C)(C)C(=O)N[C@@H](CCC(=O)O)C(=O)N[C@@H](CCCNC(=N)N)C(=O)N[C@@H](CCC(N)=O)C(=O)N[C@@H](CCC(N)=O)C(=O)N[C@@H](C)C(=O)N[C@@H](CCC(=O)O)C(=O)N[C@H](C(=O)N[C@@H](CC(N)=O)C(=O)N[C@H](C(=O)N[C@@H](CCCNC(=N)N)C(=O)N[C@H](C(=O)N[C@@H](CC(C)C)C(=O)N[C@@H](CCC(=O)O)C(=O)N[C@@H](CCCNC(=N)N)C(=O)N[C@H](C(N)=O)C(C)C)[C@@H](C)CC)C(C)C)[C@@H](C)O)[C@@H](C)CC)[C@@H](C)CC)C(C)C)C(C)C) [SEQ ID NO: 49],12.7 nM,
